Measurements: paper doi:10.1101/710897v1

System: O=c1[nH]c(=O)c2[nH]cnc2[nH]1
Test: cells, lysate or membranes
Conditions: labelled compound, H+ symport, MM pH 6.8, 37 °C

Row | Substance | Km
1 | UapA (Aspergillus nidulans FGSC A4; K73A/R133A) | 3.6 µM
2 | UapA (Aspergillus nidulans FGSC A4) | 5 ± 2 µM
